Non-standard residues stand in square brackets, D forms with d. No end group written: not given here. *: point of attachment. Biotin = O=C1N[C@H]2[C@H](CS[C@H]2CCCCC(=O)*)N1; sY = N[C@@H](Cc1ccc(OS(=O)(=O)O)cc1)C(=O)O
T1: SulfoCCK biotin peptide (human)
T1 construct: also called sulfotyrosine CCK peptide
T1 peptide: SHRISDRD[sY]MGWMDFGGK(Biotin)

T2: Human fibrinogen protein (ThermoFisher, RP-43142) (human, UniProt P02671 20-629; P02675 31-491; P02679 27-453, limits assumed, natural sulfotyrosines)
T2 construct: mature; Native dimer with 3 pairs of non-identical chains; also called gamma-fibrinogen; γ fibrinogen protein
T2 sequence (looked up) 1: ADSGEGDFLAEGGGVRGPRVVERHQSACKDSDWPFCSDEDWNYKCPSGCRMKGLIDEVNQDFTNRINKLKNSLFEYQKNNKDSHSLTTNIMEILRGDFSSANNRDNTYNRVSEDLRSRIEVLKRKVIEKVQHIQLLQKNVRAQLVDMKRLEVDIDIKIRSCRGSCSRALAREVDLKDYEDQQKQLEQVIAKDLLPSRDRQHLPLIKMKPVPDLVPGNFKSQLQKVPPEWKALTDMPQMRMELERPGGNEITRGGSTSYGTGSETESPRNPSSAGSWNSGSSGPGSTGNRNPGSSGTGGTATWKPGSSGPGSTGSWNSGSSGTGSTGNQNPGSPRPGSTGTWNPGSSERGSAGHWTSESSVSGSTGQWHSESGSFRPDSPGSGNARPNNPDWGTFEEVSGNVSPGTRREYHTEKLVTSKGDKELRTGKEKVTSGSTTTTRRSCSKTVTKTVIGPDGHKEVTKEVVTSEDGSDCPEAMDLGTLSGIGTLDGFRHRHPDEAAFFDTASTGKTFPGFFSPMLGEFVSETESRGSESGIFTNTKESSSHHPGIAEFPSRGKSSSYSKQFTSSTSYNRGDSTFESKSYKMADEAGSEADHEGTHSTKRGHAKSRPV
T2 sequence (looked up) 2: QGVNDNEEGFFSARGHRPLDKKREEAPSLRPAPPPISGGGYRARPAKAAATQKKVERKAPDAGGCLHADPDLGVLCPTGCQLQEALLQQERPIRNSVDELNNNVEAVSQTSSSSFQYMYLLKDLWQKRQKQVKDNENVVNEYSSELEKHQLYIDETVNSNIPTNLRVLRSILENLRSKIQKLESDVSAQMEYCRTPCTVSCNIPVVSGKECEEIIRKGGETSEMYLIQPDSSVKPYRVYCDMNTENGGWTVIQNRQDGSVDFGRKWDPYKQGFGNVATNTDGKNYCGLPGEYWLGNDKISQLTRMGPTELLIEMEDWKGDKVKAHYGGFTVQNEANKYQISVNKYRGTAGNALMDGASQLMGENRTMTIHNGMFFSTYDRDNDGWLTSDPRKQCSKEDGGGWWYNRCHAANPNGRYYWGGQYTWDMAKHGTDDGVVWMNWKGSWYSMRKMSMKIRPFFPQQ
T2 sequence (looked up) 3: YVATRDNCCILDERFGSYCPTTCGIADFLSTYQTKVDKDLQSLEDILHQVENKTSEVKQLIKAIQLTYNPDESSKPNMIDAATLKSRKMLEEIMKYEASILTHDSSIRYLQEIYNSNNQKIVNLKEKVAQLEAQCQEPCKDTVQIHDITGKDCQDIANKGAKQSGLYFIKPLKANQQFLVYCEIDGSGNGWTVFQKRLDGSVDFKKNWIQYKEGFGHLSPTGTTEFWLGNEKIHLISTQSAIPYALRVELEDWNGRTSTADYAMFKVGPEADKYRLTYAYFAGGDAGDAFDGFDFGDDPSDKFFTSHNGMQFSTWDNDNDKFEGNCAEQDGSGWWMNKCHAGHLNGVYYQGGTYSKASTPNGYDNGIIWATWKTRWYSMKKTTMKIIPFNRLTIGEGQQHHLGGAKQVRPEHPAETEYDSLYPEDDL

T3: Sulfotyrosine CCR2b biotin peptide (human)
T3 construct: also called CCR2b peptide
T3 peptide: TTFFD[sY]D[sY]GAPSHGGK(Biotin)

T4: Recombinant human PSGL-1(ECD)-hFc1 (R&D Systems, Cat. 3345-PS) (human, UniProt Q14242 42-305)
T4 construct: Bought; Gln42-Val295 counted on AAC50061; also called PSGL-1-Fc; PSGL-1-hFc1 chimera; not shown: human IgG1 Fc, Pro100-Lys330
T4 sequence: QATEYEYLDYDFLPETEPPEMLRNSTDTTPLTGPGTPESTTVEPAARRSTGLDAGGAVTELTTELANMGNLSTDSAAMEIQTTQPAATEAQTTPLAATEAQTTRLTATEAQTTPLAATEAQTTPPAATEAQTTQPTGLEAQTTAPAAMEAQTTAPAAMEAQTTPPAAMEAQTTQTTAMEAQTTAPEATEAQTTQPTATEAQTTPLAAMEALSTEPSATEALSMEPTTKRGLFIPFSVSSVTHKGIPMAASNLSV

T5: Sulfotyrosine D6 biotin peptide (human)
T5 construct: also called D6 peptide
T5 peptide: ENSSFY[sY][sY]D[sY]LDEVAFGGK(Biotin)

T6: SulfoTyr C4 peptide (not fully specified; Y4, Y7 and Y9 sulfated (SO3); C-terminal biotin)
T6 construct: also called C4 alpha chain peptide; human sulfotyrosinylated C4 peptide
T6 peptide: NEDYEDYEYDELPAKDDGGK

B1: 18F02 (antibody, V domains shown)
VH: QVQLQQPGAELVKPGASVKLSCKASGYTFTSYWMHWVKQRPGQGLEWIGMIHPNSGRTNYNEKFKSKATLTVDKSSSTAYMQLSSLTSEDSAVYYCARSDYWGQGTTLTVSS
VL: DIVMTQAAFSNPVTLGTSASISCRSSKSLLHSDGITYLYWFLQRPGQSPQLLIYRMSNLASGVPDRFSGSGSGTDFTLRISRVEAEDVGVYYCAQMLEFPRTFGGGTKLEIK
notes: From mouse immunisation; only variable domains given
B2: 16L15 (antibody, V domains shown)
VH: DVKLVESGGGLVKLGGSLKLSCAASGFTFSSYYMSWVRQTPEKRLEWVATISNGGGSTYYPDSVKDRFTISRDNAKNTLYLQMSSLNSEDTAVYYCAKPLYYSNPWFAYWGQGTLVTVSA
VL: DVLLTQTPLSLPVSLGDQASISCRSSQSIVHSNGNTYLEWYLQKPGQSPKLLIYKVSNRFSGVPDRFSGSGSGTDFTLKISRVEAEDLGVYYCFQGSHVPRTFGGGTKLEIK
notes: as for B1
B3: 19I01 (antibody, V domains shown)
VH: EVQLVESGGGLVKPGGSRKLSCAASGFTFSDYGMHWVRQAPEKGLEWVAYISSGSSTIYYADTVKGRFTISRDNAKNTLFLQMTSLRSEDTAMYYCARGVDGYWGQGTTLTVSS
VL: DVVMTQTPLSLPVSLGDQASISCRSSQSLVHSNGNTYLHWYLQKPGQSPKFLIYKVSNRFSGVPDRFSGSGSGTDFTLKISRVEAEDLGVYFCSQTTHVPLTFGAGTKLELK
notes: From mouse immunisation; only variable domains given; also called 19101
B4: 2E12 (antibody, V domains shown)
VH: QVQLQQSGAELARPGASVKLSCKASGYTFTNYGLNWVKQRTGQGLEWIGEIYPRSGNTYYNEKFKGKATLTADKSSSTAYMQLSSLTSEDSAVYFCATEGAYWGQGTLVTVSA
VL: DIVMTQTPLTLSVTIGQPASISCKSSQSLLHGNGKTYLNWLLQRPGQSPKLLIYLVSKLESGIPDRFSGSGSGTDFTLEISRVEAEDLGIYYCLQSTHFPRTFGGGTKLEIK
notes: Mouse hybridoma mAb; only variable domains given
B5: 10F01 (antibody, IgG4, V domains shown)
VH: EVQLVQSGGGLVQPGGSLRLSCAASGFTFSSYAMSWVRQAPGKGLEWVSALRGGDGGTYHADSVKGRFTISGDSSKNTLYLQMNSLRAEDTAVYYCARRMVGAAYAFDIWGQGTMVTVSS
VL: LPVLTQPHSVSESPGKTVTISCTRSSGSIADNFVQWYRQRPGSAPTTVIYEGDQRPSGVPGRFSGSIDSSSNSASLTISGLQTDDEADYYCQSFDSYNRRTHVVFGGGTKLTVL
B6: 03D07 (antibody, IgG4, V domains shown)
VH: EVKLLESGGGLVQPGGSLRLSCAASGFTFSSYALSWVRQAPGKGLEWVSAISGSGGNTYYADSVKGRFTISRDNSKNTLYLQMNSLRAEDTAVYYCAKVVGATNYWGQGTLVTVSS
VL: DIVMTQTPLSLPVTLGQPASISCRSSQSLVYSDGHTYLSWFHQRPGQSPRRLIYKVSIRDSGVPDRFSGSGSGTDFTLKISRVEAEDVGVYYCMQRLQIPLTFGGGTKVEIK
B7: 20I15 (antibody, V domains shown)
VH: EVKLVESGGGLVQPGGSLSLSCAASGFTFTDYYMSWVRQPPGKALEWLGFIRNKANGYTTEYSASVKGRFTISRDNSQSILYLQMNALRAEDSATYYCARTYLRRGYFDVWGTGTTVTVSS
VL: DIVLTQSPASLAVSLGQRATISCRASKSVSTSGYSYMHWFQQKPGQPPKLLIYLASNLESGVPARFSGSGSGTDFTLNIHPVEEEDAATYYCQHSRELPLTFGAGTKLELK
notes: From mouse immunisation; only variable domains given; also called 20115

These binders were tested against T7, Human complement C4 protein (Millipore Sigma, Cat. 204886) (human, UniProt P0C0L4 20-675; P0C0L4 680-1446; P0C0L4 1454-1744, limits assumed, natural sulfotyrosines) (assay: ELISA, 50 nM mAb).
T7 construct: mature
Method: (§1) Recombinant PSGL-1-hFc1 chimera protein consisting of PSGL-1's extracellular domain (ECD) served as a positive control. […] Primary antibody was added (25 ul per well) in duplicate at 50 nM in assay buffer (blocking buffer containing 0.05% Tween®20) into test and control (just blocked) wells and the plate incubated for 45 min at 37° C.

T7 sequence (P0C0L4 20-675 limits assumed, form in doubt, chain 1 of 3): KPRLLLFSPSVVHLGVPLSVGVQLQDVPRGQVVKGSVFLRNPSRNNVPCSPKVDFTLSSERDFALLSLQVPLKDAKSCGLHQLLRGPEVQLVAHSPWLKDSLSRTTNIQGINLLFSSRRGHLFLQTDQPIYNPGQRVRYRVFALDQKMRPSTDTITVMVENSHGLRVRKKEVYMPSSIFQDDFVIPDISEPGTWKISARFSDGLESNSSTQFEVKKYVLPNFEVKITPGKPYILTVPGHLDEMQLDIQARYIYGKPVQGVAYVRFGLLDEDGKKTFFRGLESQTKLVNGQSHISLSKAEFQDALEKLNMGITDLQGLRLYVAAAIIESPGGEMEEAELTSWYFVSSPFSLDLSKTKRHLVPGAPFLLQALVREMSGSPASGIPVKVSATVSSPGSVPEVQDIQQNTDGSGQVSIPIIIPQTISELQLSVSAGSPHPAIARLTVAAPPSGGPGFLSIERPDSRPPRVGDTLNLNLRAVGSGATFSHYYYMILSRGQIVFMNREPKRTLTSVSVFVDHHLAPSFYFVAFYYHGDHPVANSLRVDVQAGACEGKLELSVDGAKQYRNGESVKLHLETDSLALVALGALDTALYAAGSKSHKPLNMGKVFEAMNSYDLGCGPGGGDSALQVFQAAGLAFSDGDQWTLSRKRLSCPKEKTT
T7 sequence (P0C0L4 680-1446 limits assumed, form in doubt, chain 2 of 3): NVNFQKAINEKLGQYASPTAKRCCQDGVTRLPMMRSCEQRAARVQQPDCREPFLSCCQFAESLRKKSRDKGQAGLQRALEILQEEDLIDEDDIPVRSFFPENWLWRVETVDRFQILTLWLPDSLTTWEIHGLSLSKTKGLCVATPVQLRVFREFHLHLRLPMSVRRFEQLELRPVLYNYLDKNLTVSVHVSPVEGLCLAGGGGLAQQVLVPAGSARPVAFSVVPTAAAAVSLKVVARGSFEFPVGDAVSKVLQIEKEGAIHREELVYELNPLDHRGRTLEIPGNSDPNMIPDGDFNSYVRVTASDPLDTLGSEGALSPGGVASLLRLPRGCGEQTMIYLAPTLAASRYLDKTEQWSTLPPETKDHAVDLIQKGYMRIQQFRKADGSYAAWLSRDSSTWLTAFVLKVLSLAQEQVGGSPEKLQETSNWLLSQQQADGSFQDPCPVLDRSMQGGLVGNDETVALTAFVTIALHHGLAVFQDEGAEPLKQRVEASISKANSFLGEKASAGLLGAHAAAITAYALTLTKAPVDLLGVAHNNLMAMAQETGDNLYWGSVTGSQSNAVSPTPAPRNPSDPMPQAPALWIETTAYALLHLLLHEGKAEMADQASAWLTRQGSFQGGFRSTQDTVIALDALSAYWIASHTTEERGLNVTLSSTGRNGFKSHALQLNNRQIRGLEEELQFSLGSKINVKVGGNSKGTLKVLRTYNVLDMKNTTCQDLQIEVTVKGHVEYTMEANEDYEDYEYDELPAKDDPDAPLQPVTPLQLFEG
T7 sequence (P0C0L4 1454-1744 limits assumed, form in doubt, chain 3 of 3): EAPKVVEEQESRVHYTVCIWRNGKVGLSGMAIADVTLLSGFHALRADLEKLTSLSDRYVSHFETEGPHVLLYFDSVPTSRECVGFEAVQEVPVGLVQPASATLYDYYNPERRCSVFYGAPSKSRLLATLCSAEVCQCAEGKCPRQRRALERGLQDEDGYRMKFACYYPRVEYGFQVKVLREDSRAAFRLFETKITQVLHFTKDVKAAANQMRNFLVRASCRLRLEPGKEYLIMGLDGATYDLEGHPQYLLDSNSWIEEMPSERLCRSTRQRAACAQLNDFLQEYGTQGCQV

Binder	binding normalized to PSGL-1
B1	0.03
B2	0.02
B3	-0.01
B4	0.1
B5	0.06
B6	0.53
B7	0.09

Biological target: T1, SulfoCCK biotin peptide
Experiment: ELISA, 50 nM mAb
Method: as §1

Binder	binding normalized to PSGL-1
B5	0.03
B6	0.08

The binders below were run against T2, Human fibrinogen protein (ThermoFisher, …) (assay: ELISA, 50 nM mAb).
Method: as §1

Binder	binding normalized to PSGL-1	binding result
B1	0.01	no binding (tested: 50 nM)
B2		no binding (tested: 50 nM)
B3	-0.01	no binding (tested: 50 nM)
B4	1.3	
B5	0.01	no binding (tested: 50 nM)
B6	0.06	
B7	0.06	

Biological target: T3, Sulfotyrosine CCR2b biotin peptide
Experiment: ELISA, 50 nM mAb
Method: as §1

Binder	binding normalized to PSGL-1	binding result
B1	0.03	
B2	0.03	
B3	0.02	no binding (tested: 50 nM)
B4	0.03	
B5	0.03	
B6	0.16	
B7	0.21	

These binders were tested against T4, Recombinant human PSGL-1(ECD)-hFc1 (R&D …) (assay: ELISA, 50 nM mAb).
Method: as §1

Binder	A450nm [A450nm]
B1	2.33
B2	2.33
B3	2.33
B4	1.99
B5	2.1
B6	2.25
B7	2.45

Biological target: T5, Sulfotyrosine D6 biotin peptide
Experiment: ELISA, 50 nM mAb
Method: as §1

Binder	binding normalized to PSGL-1	binding result
B1	0.09	
B2	0.06	
B3	0.02	no binding (tested: 50 nM)
B4	0.06	
B5	0.04	
B6	0.28	
B7	0.35	

Biological target: T6, SulfoTyr C4 peptide
Experiment: ELISA, 50 nM mAb
Method: as §1

Binder	binding result	binding normalized to PSGL-1
B1	no binding (tested: 50 nM)	
B2	no binding (tested: 50 nM)	0.01
B3	no binding (tested: 50 nM)	-0.01
B4		0.03
B5		0.17
B6		0.71
B7		0.34

What follows are binders tested against T4, Recombinant human PSGL-1(ECD)-hFc1 (R&D …) (assay: blocking ELISA vs VISTA-Fc, pH 6.0).

Binder	% max Block [%]	IC50 [nM]
B1	100	10
B2	100	6
B3	100	8
B4	0	
B5	100	8
B6	100	8
B7	85	30

Reference: patent US20220396632A1 (VERSEAU THERAPEUTICS, published 2022)
